# In patent US20030119733A1, “Compositions and methods for inhibiting hepatocyte invasion by malarial sporozoites” (New York University, priority 1992, published 2003):
# How the values were obtained:
# [1] = test system: rat liver sections; test: Staining of frozen tissue sections with recombinant CS polypeptides; format: binding; settings: revealed with MAb 2A10, fluorescence; CS27IVC 50-5 μg/ml, Falciparum-2 25 μg/ml, Falciparum-1 up to 250 μg/ml
# Procedure: The procedure was carried out essentially as described by Dukor P. et al., Proc. Natl. Acad. Sci. USA 67:991-997, 1970 and Imai Y. et al., J. Cell. Biol. 111:1225-1232, 1990. Rats were euthanized with CO2. Small pieces of the liver, spleen, heart, brain and lung were removed, snap frozen in liquid nitrogen, embedded in Tissue Tek O.C.T. (Miles, Inc., Naperville, Ill.), and cut into 5 μm sections. Sections were dried for 30 min., fixed for 10 min. in 4% paraformaldehyde, rinsed three times with phosphate-buffered saline (PBS), and either used immediately or stored at 4° C. in 1% BSA, 0.5% Tween, PBS (BSA/TPBS). After blocking with 100 mM glycine (pH 7.2) and with BSA/TPBS, the sections were sequentially incubated at 37° C. with recombinant proteins for 1 hr, 10 μg/ml MAb 2A10 for 45 min., and rat anti-mouse immunoglobulin conjugated to fluorescein isothiocyanate (Boehringer Mannheim, Indianapolis, Ind.) for 45 min. The slides were counterstained for 10 min. with 0.3% Evans blue, rinsed extensively in PBS, and finally observed under a fluorescence microscope. For peptide inhibition experiments, the sections were first incubated with the peptide at various concentrations in BSA/TPBS for 1 hour at 37° C., washed six times with BSA/TPBS, and then stained with 2.5 μg/ml CS recombinant protein as described above. In a few experiments, the tissues were fixed for 10 min. with methanol, acetone, or 4% paraformaldehyde containing 0.5% glutaraldehyde.
# Frozen sections of various rat organs were incubated with recombinant CS27IVC polypeptide. […] The staining closely followed the sinusoidal spaces of the hepatic lobules, indicating CS binding to the hepatocyte membrane. Other areas of the liver sections and sections of other organs (spleen, lung, heart or brain) were not stained. Control sections (incubated with CS27IVC in the absence of antibody or vice versa) were not stained either.
# To define the region of the CS that mediates the perisinusoidal staining various other recombinant constructs were also used in the frozen section assay.
# [2] = test system: heparan sulfate proteoglycans (HSPG); test: CS/proteoglycan co-immunoprecipitation; format: binding, human; settings: for co-immunoprecipitation of 35SO4-labeled sulfated molecules: lysates of rat liver, HepG2 cells, kidney, others 64 μg/ml; for total sulfate-labeled proteoglycans precipitated: trypsin-released proteoglycan, equivalent concentrations of Region II+
# Procedure: All extracts and supernatants were first precleared with normal rabbit serum and Staph A cells. Then 32 μg/ml of CSFZ(Cys) or 64 μg/ml of CS27IVC, Falc-2 or Falc-1 were added for 30 minutes, followed by 10.8 μg/ml mAb 2A10 for 30 minutes, and 1% Staph A cells (final concentrations). The suspensions were shaken for 1 to 5 hours at 4° C. The Staph A cells were washed 3 times with the lysis buffer A, 2 times with lysis buffer B (10 mM Tris-HCl, pH 7.2, containing 100 mM NaCl and 0.5% NP40), 1 time with 50 mM Tris-HCl, ph 7.2, and were processed in this buffer for electrophoresis under reducing and non-reducing conditions.
# Extracts of cells metabolically labeled with ^35SO4 were incubated for 30 minutes at 4° C. with 32 μg/ml of recombinant CSFZ(Cys) or 64 μg/ml Falc-1, and were immunoprecipitated with mAb 2A10 and Staph A cells. […] Immunoprecipitation with Falc-1 was negative. The SDS-PAGE patterns of the total lysate of HepG2 cells, and of the molecules co-immunoprecipitated with CSFZ(Cys) resembled the corresponding liver SDS-PAGE patterns. In kidney lysates, CSFZ(Cys) selectively immunoprecipitated a band of slightly lower molecular weight than the total kidney sulfated molecules.
# Sub-confluent HepG2 cells were incubated with various concentrations of trypsin for 5 minutes at 4° C. […] Independently of the trypsin concentration, about 80% of the released HSPG was co-immunoprecipitated by 32 μg/ml CSFZ(Cys) and 10.8 μg/ml mAb 2A10. Under the same conditions, Falc-1 was negative.
# ^35SO4-labeled trypsin-released proteoglycan (total supernatant) was precipitated by CSFZ(Cys) (32 μg/ml), Falc-2 (64 μg/ml), CS27IVC (64 μg/ml) and Falc-1 (64 μg/ml). The labeled molecules were incubated with CSFZ(Cys), CS27IVC, and Falc-2 at equivalent concentrations of Region II+, and co-immunoprecipitated with the mAb 2A10. CSFZ(Cys), lacking most of the repeat region, precipitated up to 86% of the total sulfate-labeled proteoglycans (see FIG. 14), while CS27IVC and Falc-2 precipitated only 18% and 6% of the counts, respectively. Falc-1, which lacks Region II+, was negative.
# Subconfluent sulfate-labeled HepG2 cells were incubated with 20 μg/ml trypsin for 5 minutes at 4° C., and the supernatants were loaded onto an anion exchange chromatography Pharmacia mono-Q column. These were eluted with a 0 to 2 M NaCl gradient in the presence of 7 M urea. […] Protein was not detectable in the labeled peaks. One ml fractions were collected and counted.
# [3] = Solid phase binding assay, cholesterol-3-sulfate; settings: steroid dried into microtiter wells
# Procedure: Solid phase binding assays: Thirty μl of lipids or steroids dissolved in methanol (20-250 μg/ml) were dried into wells of microassay plates (Cat.# 3911—Falcon—Oxnard, Calif.). The plates were then blocked with 1% BSA/PBS pH 7.4 (BSA/PBS) for 30 minutes. Wells were incubated with recombinant protein (or with parasite extract) in PBS/BSA for 1 hour, washed 3 times with BSA/PBS, incubated for 1 hour with monoclonal antibodies 2F2 or 2A10 in BSA/PBS, washed 3 times, and then incubated with (10^5 cpm/well) ^125I protein A (Amersham Corp., Arlington Hts., Ill.). In the case of the P. berghei CS protein, wells were incubated with ^125I labelled mAb 3D11. Wells were washed again and the bound radioactive protein was counted in an LKB gamma-counter (model #1260, Pharmacia, Inc., Gaithersburg, Md.). For inhibition assays, the recombinant proteins were mixed with dilutions of the various polymers in BSA/PBS, the mixture was loaded into the wells of the microtiter plates, and the binding assay performed as above. See also, Roberts, et al. J. Biol. Chem. 260:9405-9411, 1985.
# 1.4 nmol of sulfatide (open squares), cholesterol-3-sulfate (closed triangles), galactocerebroside I (closed circles), galactocerebroside II (open circles) and cholesterol (open triangles) were evaporated into microtiter wells and then incubated with serial dilutions of Vivax-2. […]
Molecule,binding (staining) to frozen liver sections [1],co-immunoprecipitation of 35SO4-labeled sulfated molecules ([2]; CSFZ(Cys) 32 μg/ml),total sulfate-labeled proteoglycans precipitated [2],binding to cholesterol-3-sulfate [3],"co-immunoprecipitation of 35SO4-labeled sulfated molecules ([2]; CSFZ(Cys) 32 μg/ml, listed as Falc-1)","released HSPG co-immunoprecipitated ([2]; trypsin-released from HepG2 cells, CSFZ(Cys) 32 μg/ml, mAb 2A10 10.8 μg/ml)"
Falciparum-2: fragment of P. falciparum CS protein with repeats and Region II+ (residues 43-391) (protein) AGTNLYNELEMNYYGKQENWYSLKKNSRSLGENDDGNNNNGDNGREGKDEDKRDGNNEDNEKLRKPKHKKLKQPGDGNPDPNANPNVDPNANPNVDPNANPNVDPNANPNANPNANPNANPNANPNANPNANPNANPNANPNANPNANPNANPNANPNANPNANPNVDPNANPNANPNANPNANPNANPNANPNANPNANPNANPNANPNANPNANPNANPNANPNANPNANPNANPNANPNANPNKNNQGNGQGHNMPNDPNRNVDENANANNAVKNNNNEEPSDKHIEQYLKKIKNSISTEWSPCSVTCGNGIQVRIKPGSANKPKDELDYENDIEKKICKMEKCSS,bound to the liver sections,less efficient,6%,bind,,
Falciparum-1: Same as Falciparum-2 minus most of Region II+ (P. falciparum residues 43-348) (protein) AGTNLYNELEMNYYGKQENWYSLKKNSRSLGENDDGNNNNGDNGREGKDEDKRDGNNEDNEKLRKPKHKKLKQPGDGNPDPNANPNVDPNANPNVDPNANPNVDPNANPNANPNANPNANPNANPNANPNANPNANPNANPNANPNANPNANPNANPNANPNANPNVDPNANPNANPNANPNANPNANPNANPNANPNANPNANPNANPNANPNANPNANPNANPNANPNANPNANPNANPNANPNKNNQGNGQGHNMPNDPNRNVDENANANNAVKNNNNEEPSDKHIEQYLKKIKNSISTEWSP,did not bind,,negative,did not bind,Negative results,negative
